Laboratory results taken from paper PMC4215112.

B1: Bet v 1.0101 peptide I56 to D69 [modified: biotin at the N-terminus, before the additional glycine; biotin at the N-terminus, before the additional glycine] [birch] / M0418 scFv-Fcε fusion protein [human] (parent)
chain 1: QVQLVQSGAEVKKPGESLKISCKGSEYSFPNYWIAWVRQMPGKGLEWMGMIYPGDSDTRYSPSFQGQVNISADKSSRTAFLEWSSLKASDSATYFCARLGGQLWNSYYYYYYMDVWGKGTTVTVSSGGGGSGGGGSGGGGSSYELTQPPSASGTPGQRVTISCSGSSSNIGGNTVNWYQQVPGTAPRLLIYKNNQRPSGVPDRFSGSKSGTSASLAISGLRSEDEADYYCEAWDGGLRGGVFGGGTKLTVLGDYKDDDDKAAA
chain 2: GISFPEGFPFKYVKDG

Variants of: B1
Test: ELISA
Details: with M0418 scFv-Fcε fusion protein [human], read off a plot

Variant | screen value (10X dilution) [%] | screen value (100X dilution) [%]
chain 2 Y12A | 3 | 79
chain 2 P5A | 96 | 98
chain 2 K14A | -0 | -0
chain 2 I2A | 5 | 76
chain 2 G7A | 43 | 83
chain 2 F4A | -0 | 37
chain 2 S3A | -0 | 9
chain 2 P9A | 95 | 98
chain 2 F8A | 95 | 98
chain 2 F10A | -0 | 38
chain 2 V13A | -0 | -0
chain 2 K11A | 95 | 98
chain 2 E6A | -0 | 14
chain 2 D15A | -0 | -0
